Series [1] concerns the target T1, PyrKII (P. falciparum pyruvate kinase II; His-PyrKII) (Plasmodium falciparum, UniProt Q8IJ37).
T1 construct: gene PF3D7_1037100; residues 42-745 (predicted mature protein, apicoplast trafficking peptide removed); synthetic codon-harmonized gene; MBP-TEV-His6 fusion from E. coli BL21 Star (DE3), MBP cut by TEV, N-terminal His6 kept; 83,014 Da
T1 sequence (Q8IJ37 42-745): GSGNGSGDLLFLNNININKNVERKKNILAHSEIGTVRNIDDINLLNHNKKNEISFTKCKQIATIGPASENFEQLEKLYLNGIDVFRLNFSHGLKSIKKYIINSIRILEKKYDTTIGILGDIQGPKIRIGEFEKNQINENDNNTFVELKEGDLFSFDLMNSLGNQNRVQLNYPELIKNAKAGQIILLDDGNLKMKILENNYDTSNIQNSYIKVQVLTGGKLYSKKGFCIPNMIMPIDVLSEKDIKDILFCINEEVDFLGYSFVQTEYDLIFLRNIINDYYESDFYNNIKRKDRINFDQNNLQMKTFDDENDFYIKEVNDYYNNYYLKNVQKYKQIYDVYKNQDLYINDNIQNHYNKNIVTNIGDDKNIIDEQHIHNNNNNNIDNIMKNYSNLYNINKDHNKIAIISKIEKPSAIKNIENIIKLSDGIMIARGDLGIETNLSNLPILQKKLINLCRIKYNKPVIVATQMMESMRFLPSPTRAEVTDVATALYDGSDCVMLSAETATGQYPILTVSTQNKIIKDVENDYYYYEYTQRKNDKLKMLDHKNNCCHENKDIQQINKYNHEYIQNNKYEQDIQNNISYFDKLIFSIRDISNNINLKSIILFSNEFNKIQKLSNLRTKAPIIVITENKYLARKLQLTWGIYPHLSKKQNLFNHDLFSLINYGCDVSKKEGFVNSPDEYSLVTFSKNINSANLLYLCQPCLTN
In words: LDH-coupled spectrophotometric assay, NADH oxidation at […] nm. Type of series: biochemical. The following applies: 3 mM ADP, PEP 0-20 mM, 10 mM MgCl2, 50 mM KCl, 26.5 mM Tris-HCl pH 7.5.

Substrate in series [2]: Nc1ccn([C@@H]2O[C@H](COP(=O)(O)OP(=O)(O)O)[C@@H](O)[C@H]2O)c(=O)n1
As to the kind of experiment: purified protein. Type of series: biochemical, Plasmodium falciparum. The conditions noted are these: 5 mM PEP, 10 mM MgCl2, 50 mM KCl, 26.5 mM Tris-HCl pH 7.5.

Substrate in series [3]: Nc1ccn([C@H]2C[C@H](O)[C@@H](COP(=O)(O)OP(=O)(O)O)O2)c(=O)n1
In words: purified protein. It counts as biochemical, Plasmodium falciparum. The following applies: 5 mM PEP, 10 mM MgCl2, 50 mM KCl, 26.5 mM Tris-HCl pH 7.5.

Substrate in series [4]: Nc1nc2c(ncn2[C@@H]2O[C@H](COP(=O)(O)OP(=O)(O)O)[C@@H](O)[C@H]2O)c(=O)[nH]1
In words: purified protein. The conditions noted are these: 5 mM PEP, 10 mM MgCl2, 50 mM KCl, 26.5 mM Tris-HCl pH 7.5. Type of series: biochemical, Plasmodium falciparum.

Substrate in series [5]: Nc1nc2c(ncn2[C@H]2C[C@H](O)[C@@H](CO[P@](=O)(O)OP(=O)(O)O)O2)c(=O)[nH]1
As to the kind of experiment: purified protein. Type of series: biochemical, Plasmodium falciparum. The following applies: 5 mM PEP, 10 mM MgCl2, 50 mM KCl, 26.5 mM Tris-HCl pH 7.5.

Substrate in series [6]: Nc1ncnc2c1ncn2[C@@H]1O[C@H](COP(=O)(O)OP(=O)(O)O)[C@@H](O)[C@H]1O
In words: purified protein. Type of series: biochemical, Plasmodium falciparum. The following applies: 5 mM PEP, 10 mM MgCl2, 50 mM KCl, 26.5 mM Tris-HCl pH 7.5.

Substrate in series [7]: Nc1ncnc2c1ncn2[C@H]1C[C@H](O)[C@@H](COP(=O)(O)OP(=O)(O)O)O1
In words: purified protein. Type of series: biochemical, Plasmodium falciparum. The conditions noted are these: 5 mM PEP, 10 mM MgCl2, 50 mM KCl, 26.5 mM Tris-HCl pH 7.5.

Substrate in series [8]: O=c1ccn([C@@H]2O[C@H](COP(=O)(O)OP(=O)(O)O)[C@@H](O)[C@H]2O)c(=O)[nH]1
As to the kind of experiment: purified protein. Type of series: biochemical, Plasmodium falciparum. The conditions noted are these: 5 mM PEP, 10 mM MgCl2, 50 mM KCl, 26.5 mM Tris-HCl pH 7.5.

For the molecule `C=C(OP(=O)(O)O)C(=O)O` [PEP], the Km in series [1] is 0.64+ / - 0.05 mM.

B1: PyrKII (P. falciparum pyruvate kinase II; His-PyrKII) (Plasmodium falciparum 3D7) (protein)
chain: GSGNGSGDLLFLNNININKNVERKKNILAHSEIGTVRNIDDINLLNHNKKNEISFTKCKQIATIGPASENFEQLEKLYLNGIDVFRLNFSHGLKSIKKYIINSIRILEKKYDTTIGILGDIQGPKIRIGEFEKNQINENDNNTFVELKEGDLFSFDLMNSLGNQNRVQLNYPELIKNAKAGQIILLDDGNLKMKILENNYDTSNIQNSYIKVQVLTGGKLYSKKGFCIPNMIMPIDVLSEKDIKDILFCINEEVDFLGYSFVQTEYDLIFLRNIINDYYESDFYNNIKRKDRINFDQNNLQMKTFDDENDFYIKEVNDYYNNYYLKNVQKYKQIYDVYKNQDLYINDNIQNHYNKNIVTNIGDDKNIIDEQHIHNNNNNNIDNIMKNYSNLYNINKDHNKIAIISKIEKPSAIKNIENIIKLSDGIMIARGDLGIETNLSNLPILQKKLINLCRIKYNKPVIVATQMMESMRFLPSPTRAEVTDVATALYDGSDCVMLSAETATGQYPILTVSTQNKIIKDVENDYYYYEYTQRKNDKLKMLDHKNNCCHENKDIQQINKYNHEYIQNNKYEQDIQNNISYFDKLIFSIRDISNNINLKSIILFSNEFNKIQKLSNLRTKAPIIVITENKYLARKLQLTWGIYPHLSKKQNLFNHDLFSLINYGCDVSKKEGFVNSPDEYSLVTFSKNINSANLLYLCQPCLTN
notes: residues 42-745 (predicted mature protein, apicoplast trafficking peptide removed); synthetic codon-harmonized gene; MBP-TEV-His6 fusion from E. coli BL21 Star (DE3), MBP cut by TEV, N-terminal His6 kept; 83,014 Da
For the molecule B1, the kcat was determined as 7.3 ± 1.15 s⁻¹ in the series “purified protein [2]”; 1.3 ± 0.05 s⁻¹ in “purified protein [3]”; 6.62 ± 0.75 s⁻¹ in the series “purified protein [4]”; 1.5 ± 0.0833 s⁻¹ in “purified protein [5]”; 13.2 ± 3.1 s⁻¹ in “purified protein [6]”; 6.68 ± 0.517 s⁻¹ in the series “purified protein [7]”. Moreover, the kcat in “purified protein [8]” stood at 4.2 ± 0.667 s⁻¹. Also, the kcat/Km in “purified protein [2]” was determined as 7200 M⁻¹ s⁻¹; in the series “purified protein [3]”, 2480 M⁻¹ s⁻¹; in “purified protein [4]” it was 98200 M⁻¹ s⁻¹; in “purified protein [5]”, 5300 M⁻¹ s⁻¹; in “purified protein [6]” it was 53300 M⁻¹ s⁻¹; in the series “purified protein [7]”, 17800 M⁻¹ s⁻¹. In addition, the specificity constant (kcat/Km) in the series “purified protein [8]” came to 5100 M⁻¹ s⁻¹.

By kcat is commonly meant the number of substrate molecules converted per active site and unit of time at saturation. By kcat/Km is commonly meant the second-order rate constant that governs catalysis at low substrate concentration.

The values are drawn from publication PMC7556864, “The NTP generating activity of pyruvate kinase II is critical for apicoplast maintenance in Plasmodium falciparum” (eLife, 2020).
